Test results: paper PMC7509637 (Advanced Science, 2020)

Assays:
zebrafish larvae = assay: Behavioral pathology of zebrafish larvae (Zebrabox); type: in vivo, zebrafish (AB, Danio rerio); settings: 2 d postinjection, 1 h observation
Procedure: Aβ (HFIP‐treated) was dissolved in PBS (pH 7.4) to make a stock solution. Aβ (100 × 10^−15 M) was injected into the cerebroventricular space of one week old zebrafish larvae. Aβ with FapCS was injected at a 10:1 molar ratio (Aβ:FapCS, 100 × 10^−15:10 × 10^−15 M). PBS alone and untreated larvae were used as negative controls. Zebrafish larvae were anesthetized by adding a few drops of tricaine (0.4%) in the petri dish. When larvae stopped to move in response to the tapping stimuli, the larvae were transferred to an injection template made from 1% agarose gel. Microinjection of Aβ was performed with a calibrated microneedle and pneumatic microinjection system (PV830 WPI), under a stereomicroscope. The injection pressure was set to 20 psi, the injection volume was 10 nL, and the injections were made with a micromanipulator. The tip of the needle was inserted into the ventricular space of larvae and penetration across the soft skin of dorsal tissue (central meeting point of both telencephalons) was not more than 0.3 mm. […]
Behavior of zebrafish larvae was observed by an automated zebrafish behavior recording system Zebrabox (Viewpoint). […] The trajectories of the zebrafish movements were also recorded by the instrument and all behavior measurements were done in a 96‐well plate with one larva per well. […]

Aβ = target: T1, Aβ (Homo sapiens, UniProt P05067); assay: ThT kinetic assay of Aβ fibrillization (seeding with FapC species, Aβ seeds, bLgS); type: biochemical; settings: 37 °C, n = 3
T1 construct: purchased Anaspec Inc
Procedure: FapC seeds (FapCS) were produced by FapC fibrils of three different ages. The FapC monomers were produced as described^[ ^45 ^] and stored in 6 M GdmCl. Prior to fibrillization, the FapC monomers were purified via a PD10 desalting column. FapC monomers (1 mg mL^−1 or 40 × 10^−6 M) were incubated in deionized water at 37 °C for 1 week to produce mature fibrils and at 37 °C or 25 °C for 4 d to obtain young fibrils. Deionized water was used to make FapC fibrils as it is convenient to transfer the samples to other experimental conditions, i.e., buffered Aβ solution or PBS for in vivo microinjection. However, bacterial amyloids like FapC and curli can make amyloids over a range of conditions.^[ ^93 ^] FapCS were produced by sonicating an aqueous solution of FapC fibrils (10 × 10^−6 M) at 20 power of a probe sonicator (Sonics Vibracell: 750 watts and 20 kHz) for 2 min with 1 s on/off cycle. For in vitro cross‐seeding experiments, 50 × 10^−6 M of Aβ monomers were incubated with 5 × 10^−6 M of FapCS (10:1 molar ratio, Aβ:FapCS) at 37 °C. bLg amyloids were synthesized by heating of bLg monomers (80 °C, pH 2) of 10 mg mL^−1 solution for 24 h. Prior to the production of bLgS, the bLg amyloid solution was brought to pH 7 and then sonicated, similar to FapC, to generate bLgS.
Aβ (Anaspec Inc., purity ≥ 95%) was dissolved in 100 µL of hexafluoro‐2‐propanol (HFIP) and incubated at room temperature for 3 h. The acquired aliquots of this solution were freeze dried and stored at −20 °C for further experimentation. […] For the ThT kinetic assay, a 100 µL of aqueous solution containing Aβ (50 × 10^−6 M), FapCS or bLgS (5 × 10^−6 M) and ThT dye (100 × 10^−6 M) was incubated (37 °C) in a 96‐well plate. The ThT fluorescence (excitation: 445 nm/ emission: 485 nm) was recorded at specified time intervals for 50 h. Kinetic parameters (rate constant k, half‐life t 1/2 and lag‐time) were calculated as described.^[ ^94 ^] Briefly, kinetic curves were fitted to a sigmoidal curve =y0+ymax−y0/1+e^−(t−t1/2)k , where y 0 and y max are initial and final ThT fluorescence values, allowing us to calculate lag time = t 1/2 − 2/k.

Molecule: amyloid beta [Aβ]
- larval swimming behavior (in words) (zebrafish larvae): slightly lower movement frequency
- fibrillization rate constant (k) (Aβ; Aβ 50 × 10^−6 M alone or with FapCS 5 × 10^−6 M): 0.7 h⁻¹

B1: FapCS: FapC seeds obtained by sonication of mature FapC fibrils (P. aeruginosa) (protein)
chain: GNEGGWHPPKPNPQSNNKGGATALVVDTQQNYNNKVSNFGTLNNASVSGSIKDASGNVGVNVAAGDNNQQANAAALASADASFVFGTATASTSVLQSGYGNTLNNYSNPNTASLSNSANNVSGNLGVNVAAGNFNQQKNDLAAAVSNGQYSTAGSAASQTSTGNTTVNSANYAYGGTYVSLKLNADGSYKGTSDQIGDVYLDTWEGQTHPGGSNTGHIDVDSQAQGAKDLNHDGGAFAFKEKGDVDLKGTVSGFIPAIVGFKTPVTNNASLSNSLQNVSGNVGVNIAAGGGNQQSNSLSIAAGCSSCPAGGESLGF
- larval swimming behavior (in words) (zebrafish larvae): significantly aggravated (**, P < 0.005) Aβ toxicity and reduced the movement frequency and total travel distance
- effect on half-life t1/2 of Aβ (in words) (Aβ; 5 × 10^−6 M with Aβ 50 × 10^−6 M, **, p < 0.005): significantly shortened
- effect on rate constant k of Aβ (in words) (Aβ; 5 × 10^−6 M with Aβ 50 × 10^−6 M, FapCS *, p < 0.05, FapC monomer and fibrils **, p < 0.005): significantly increased
- lag time of Aβ (in words) (Aβ; Aβ 50 × 10^−6 M with FapCS 5 × 10^−6 M, **, p < 0.005): significantly shortened
- effect on Aβ fibrillization (ThT) (Aβ; Aβ 50 × 10^−6 M, seeds/FapC species 5 × 10^−6 M, ThT fluorescence ex 445/em 485 nm): acceleration of Aβ fibrillization
